Results published in the nanobody polyreactivity screen of Harvey et al. (2022).

Assay: yeast display, Sf9 membrane polyspecificity reagent, FACS + sequencing; frameworks hold sequencing errors
Summary of the method: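 Nanobodies from a synthetic yeast display library (Saccharomyces cerevisiae BJ5465), induced 36–48 hours with galactose, were stained 1 hour at 4 °C with 10% biotinylated, detergent-solubilized Sf9 membrane reagent, enriched on streptavidin microbeads, then FACS-sorted. Anti-HA (expression) and streptavidin (reagent binding) fluorescence set low and high (top ~1%) gates. Polyreactivity labels come from the gate of origin. Genes were colony-PCR amplified, MiSeq 2 × 250 sequenced and filtered by CDR length.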

Sequence | polyreactivity (PSR sort gate)
QVQLVESGGGLVQAGGSLRLSCAAYSYVMGWYRQAPGKERELVAAISQSGGSTYYADSVKGRFTISRDNAKNTVYLQMNSLKPEDTADYYCAARREPYQYNQYYSWGQGTQVTVSS | high polyreactivity
QVQLVESGGGLVQAGGSLRLSCAAYVSIFGDNALGWYRQAPGKEMELVAAISSDGNTNYADSVKGRFTISRDNAKNTVYLQMNSLKPEDTAVYYCAARWGYRRVRANSFYYWGQGTQVTVSS | low polyreactivity
QVQLVESGGGLVQAGGSLRLSCAAYYAMGWYRQAPGKERELVAAIDDGTSTNYADSVKGRFTISRDNAKNTVYLQMKSLKPEDTAVYYCNKLSEVTYYGSKFDYWGQGTQVTVSS | low polyreactivity
QVQLVESGGGLVQAGGSLRLSCAAYYYNMGWYRQAPGKESELVASITWSDVSTYYADSVKRRFTISRDNAKNTVYLQMNSLKPEDTAVYYCAKGTWADAYGYWGQGTQVTVSS | low polyreactivity
QVQLVESGGGLVQAGGSLRLSCADSASIFRNAMGWYRQAPRKERELVAGIRWSDGSTNYADSVKGRFTISRDNANITVYLQMNSLKPEDTAVYYCAKGAYFARRMYYWGQGTQVTVSS | low polyreactivity
QVQLVESGGGLVQAGGSLRLSCADSASTLVVNGMGWYRQAPGKERELVASISSDGSTNYADSVKGRFTISRDNAKNTVYLQMNSLKPEDTAFYYCAADEGNGQASLSSNLYDYWGQGTQVTVSS | low polyreactivity
QVQLVESGGGLVQAGGSLRLSCADSGFILDYNTMGWYRQAPGKERELVAAISSSGDTTYYADSVKGRFTISRDNAKNTVYLQMNSLKPEDTAVYYCAREYGDGYEYWGQGTQVTVSS | low polyreactivity
QVQLVESGGGLVQAGGSLRLSCADSGFTFSSYAMGWYRQAPGKDRELVAAISTRGGSTYYADSVKGRFTISRDYANKTVYLQMNSLKPEDTAVYYCATGGRGGRRYEYWGQGTQVTVSS | low polyreactivity
QVQLVESGGGLVQAGGSLRLSCADSGFTFYFYAMGWYRQAPGKEREFIATINFISGSTYYADSVKGGVTISRDNAKNTVYLQMNSLKPEDTAVYYCNKPFPYYPDGPNGYDYWGQGTQVTVSS | low polyreactivity
QVQLVESGGGLVQAGGSLRLSCADSGITFDWNTMGWYRQAPGKERELVAAITFRSGSTYYADSVKGRFTISRDNAKNTVYLQMNSLKPEDTAVYYCNKDTAYTSPRFDYWGQGTQVTVSS | high polyreactivity
QVQLVESGGGLVQAGGSLRLSCADSGITFSRYAMGWYRQAPGKERELVAAITRRGGNTYYADSVKGRFTISRDIAKNTVYLQMNSLKPVDTAVYYCASGYTYYGGDYWGQGTQVTVSS | high polyreactivity
QVQLVESGGGLVQAGGSLRLSCADSGITFYGSAMGWYRQAPGQERELVAAISKSGGSTHYADSVKGRFTISRDNAKNTVYLQMNSLKPEDTAVYYCAAAYWTRLRRMDYWGQGTQVTVSS | low polyreactivity
QVQLVESGGGLVQAGGSLRLSCADSGNTFYVDTMGWYREAPGKESELVAAIYSTGDRTYYADSLKGRFTISRYKAKNTVYLQMNRLKPEDTAVYYWAARLYRGSLGYYFWGQVTQVTVSS | high polyreactivity
QVQLVESGGGLVQAGGSLRLSCADSGRIFATNAMGWYRHAPGKERELVATITRSAGRTYYADSVKGRFTISRDNAKNTVYLQMNSLKPEDTAVYYCAASYWDTERGYREYDYWGQGTQVTVSS | low polyreactivity
QVQLVESGGGLVQAGGSLRLSCADSGRIFGPYAMGWYRKAPGKERELVAAIRASSSTYYADSVKGRFTISRDNAKNTVYLQMNSLKPEDTAVYYCAADWYYGYAWKYGYWGQGTQVTVSS | low polyreactivity
QVQLVESGGGLVQAGGSLRLSCADSGRIFGTSAMGWYRQAPGKERELVATISYSSGRTYYADSVKGRFTISRDNAKNTVYLQMNSLKPEDTAVYYCARRRRSGSRQYYYWGQGTQVTVSS | high polyreactivity
QVQLVESGGGLVQAGGSLRLSCADSGRIFGYNAMGWYRQAPGKEREFVAAITTSGGSTYYADSVKGRFTISRDNAKKTVFLQMTSLKPEDTAVYYCARDSLHVFYPYASDDYWGQGTQVTVSS | low polyreactivity
QVQLVESGGGLVQAGGSLRLSCADSGRIFVGNAMGWYRQAHGKERELVAAITSSGGSTYYADSVKGRFTISRDNAKNTVYLQMNSLKPEDTAVYYCAARVPYRLKAQPFSNRGYYWGQGTQVTVSS | high polyreactivity
QVQLVESGGGLVQAGGSLRLSCADSGRIFYANAMGWYRQAPGKERELVAAISSGGSTYYADSVKGRFTISRDNAKNTVYLQMNSLKPEDTAVYYCAVYTHKIVRPEYDYWGQGTQVTVSA | low polyreactivity
QVQLVESGGGLVQAGGSLRLSCADSGRIITVYDMGWYRQAPGKEREYVAAISDTDSSTYADSVKGRFTISRDNAKNTVYLQMNSLKPEDTAVYYCNAVGDIFGRVSTEYEYWGQGTQVTVSA | low polyreactivity
QVQLVESGGGLVQAGGSLRLSCADSGRIIYKNAMGWYRQAPGKERELVAAITSSGGSTYYADSVKGRFTISRDNAKNTVYLQMNSLTPVDTAVYYCAAYAYVRFGKLNYWGQGTQVTVSS | low polyreactivity

Sequence | polyreactivity (PSR sort gate)
QVQLVESGGGLVQAGGSLRLSCADSGRTFGSNAMGWYRQAPGKERELVAAISSTVSTNYADSVKGRFTISRDNAKNTVYLQMNSLKPEDTAVYYCNVTRHYSYVSEYDYWGQGTQVTVSS | low polyreactivity
QVQLVESGGGLVQAGGSLRLSCADSGRTFRGNAMGWYRQAPGKERELVAAISWSGDSTYYADSVKGRFTISRDNAKNSVYLQMNSLKPEDTAVYYCNRDYGLQRYRGWYQYNYWGQGTQVTVSS | low polyreactivity
QVQLVESGGGLVQAGGSLRLSCADSGRTFTKYAMGRYRQAPGKERELVAAISRSGGSTYYADSVKGRFTISRVNAKNTVYLQMNSLKPEDTAVYYCAARRYRASSRGYGYWGQGTQVTVSS | high polyreactivity
QVQLVESGGGLVQAGGSLRLSCADSGRTIDVYAMGWYRHAPGKEREFVAAISTGASTCYADSVKGRFTISRDNAKNTVYLQMNSLKTEDTGVYYCAKRVTRWYGYWGQGTQVTVSA | high polyreactivity
QVQLVESGGGLVQAGGSLRLSCADSGRTLSVYAMGWYRQAPGKESELVAAITWRGGSTYYADSVKGRFTISRDNAKNTVYLQMNSLKPEDTAVYYCAAEDYTYNGGGFEYWGQGTQVTVAS | low polyreactivity
QVQLVESGGGLVQAGGSLRLSCADSGRTLVRYTMRGYRQAPGKERDLVASISQRGGTTYYADSVKGRFTISRDNAKNTVYLQMNSLKPEDTAVYYCAAGIHGRYARDWYEYWGQGTQVTVSS | low polyreactivity
QVQLVESGGGLVQAGGSLRLSCADSGSIFAYYAMGWYRQAPGKERELVADITSSGGITYYADSVKGRFTISRDNAKNTVYLQMNSLKPEDTAVYYCNADSLAIVGGSYPYDYWGQGTQVTVSS | low polyreactivity
QVQLVESGGGLVQAGGSLRLSCADSGSIFDDYTMGWYRQAPGKERELVAVITTGGTTYYADSVKGRFTISRDNAKNTVYLQMNSLKPEDTAVYYCAAKEANRYRRYYWGQGTQVTVSS | high polyreactivity
QVQLVESGGGLVQAGGSLRLSCADSGSIFDFNALGWYRQAPRKERELVAAITWSGGSTYYSDSVKGRFTISRDYAKNTVYLQMNSLKPEDTAVYYCAADSLYDDFYYWGQGTQVTVSS | low polyreactivity
QVQLVESGGGLVQAGGSLRLSCADSGSIFGVNVMGWYRQAPGKDRELVAAITSIGGRTYYADSVKGRFTISRDNAKNTVYLQMNSLKPEDTAVYYCNADYTGAEYDYWGQGTQVTVSS | low polyreactivity
QVQLVESGGGLVQAGGSLRLSCADSGSIFLWNTMGWYRQAPGKERELVAAINFSGTRTYYADSVKGRFTISRDNAKNTVYLQMNSLKPEDTAVYYCNARTSRRLDYDYWGQGTQVTVSS | high polyreactivity
QVQLVESGGGLVQAGGSLRLSCADSGSIFSPYAMGWYRQAPGKERELVAAITNSGGRTYYADSVKGRFTISRDNAKNTVYLQMNSLKPEDTAVYYCNADYGKHHPDYYYWGQGTQVTVSS | low polyreactivity
QVQLVESGGGLVQAGGSLRLSCADSGSIFVKNAMGWYRQAPGKERELVATISTGGRTYYADSVKGRFTISLDNAKNTVYLQMNSLKPEDTAVYYCATDFYPRYLLRTYRPYYYWGQGTQVTVSS | low polyreactivity
QVQLVESGGGLVQAGGSLRLSCADSGSIFWLYAMGWYRQAPGKERELVAAIDSGDSTKYADSVKGRFTISRDNAKNTVYLQMNSLKPEDTAVYYCNASRRYHVRAPYDYWGQGTQVTVSS | low polyreactivity
QVQLVESGGGLVQAGGSLRLSCADSGSIFYGYTMGWYRQAPGKERELVAAISSSGGSTYYADSVKGRFTISRDNAKNTVYLQMNSLKPEDTAVYYCAAYVPYSPDHVEFNYWGQGTQVTVSS | high polyreactivity
QVQLVESGGGLVQAGGSLRLSCADSGSIFYPYAKGLYRQDPGKERELVATITSSGSSTYYADSVKGRFTISRDNAKNTVYLQMNSLKPEDTAVYYCAAYRVILYYLYDYWGQGTQVTLSS | low polyreactivity
QVQLVESGGGLVQAGGSLRLSCADSGSISRNAMGWYRQAPGKERELVAGISQSGGRTYYADSVKGRFTISRDNAKKTVYLQMNSLKPEDSAVYYCNADPRRGPGSVSSVRNNYWGQGTQVTVSS | high polyreactivity
QVQLVESGGGLVQAGGSLRLSCADSGSTFDSYAMGWSRQAPGKEMDMVAGITWGGGSTYYADSVKGRLTISRDNAKNTVYLQLNSLKPEDTAVYDCAAEEVYYWYTYYYWGEGTQVTVSS | high polyreactivity
QVQLVESGGGLVQAGGSLRLSCADSGSTFDSYDMGWYRQAPGKERELVAGISYSSDRTYYADSVKGRFTISRDNAKNTVYLQMNSLKPEDTAVYYCAKDHTGTVQYPLDYWGQGTQVTVSS | low polyreactivity
QVQLVESGGGLVQAGGSLRLSCADSGSTFHPYAMGWYRKAPGKERELVAAISWTGGRTYYADSVKGRFTISRDNSKNTVYLQMNSLKPEDTAVYYCAARTYGKVGYWGQGTQVTVSS | high polyreactivity
